Experimental data as given in PMC10833071.

B1: BioT6SS1-p (dsDNA)
DNA 1: TATCGCAATAAAAATGCCACTCATGTTTTAATATA
DNA 2: TATATTAAAACATGAGTGGCATTTTTATTGCGATA
B2: T6SS1-p (unlabeled) (dsDNA)
DNA 1: B1 DNA 1
DNA 2: B1 DNA 2

Tests used:
His6-Fur [1] = molecular target: T1, His6-Fur (UniProt Q66DC2 1-148); experiment: EMSA; 5 mM MgCl2, 50 ng poly(dI-dC); […] (pH not stated); ITC: PBS, 25 C; details: protein: recombinant; tags: His6; chain copies: 2; label: 5' biotin (BioT6SS-1pF); blunt
His6-Fur [2] = molecular target: T1, His6-Fur; experiment: competition; […] (pH not stated); ITC: PBS, 25 C; details: protein: recombinant; tags: His6; chain copies: 2; blunt

Binder | binding result (His6-Fur [1]) | binding result (His6-Fur [2])
B1 | binds | –
B2 | – | binds
